Test: yeast display, Sf9 membrane polyspecificity reagent, FACS + sequencing; frameworks hold sequencing errors
How it was run: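 After 36–48 hours of galactose induction, yeast (Saccharomyces cerevisiae BJ5465) displaying a synthetic nanobody library were stained at 4 °C for 1 hour with 10% biotinylated, detergent-solubilized Sf9 membrane reagent. Streptavidin microbeads enriched the stained cells before FACS sorting into low and high (top ~1%) gates on anti-HA and streptavidin fluorescence. Each clone's polyreactivity label reflects its gate of origin.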
With “QVQLVESGGGLVQAGGRLRLICAASGSTFRANIMRWSRQAPGKERELVAAITSGGGSTYYADSVKGRFTISRDNAKNTVYLQMNSLKPEDTAVYYCAARIYHDIDTRSYYWGQGTQVTVSS” the “polyreactivity (PSR sort gate)” value was “high polyreactivity”. For “QVQLVESGGGLVQAGGSLRLSCAAYGRISAMGWYRQAPGKERELVAAISRGGSTYYADSVKGRFTISRDNAKNTVYLQMNSLKPEDTAVYYCARRYASTGYDYWGQGTQVTVSS”, the “polyreactivity (PSR sort gate)” value was “high polyreactivity”. For “QVQLVESGGGLVQAGGSLRLSCAASGIIFVYYTMGWYRQAPGKERELVAAITSGGSTYYADSVKGRFTISRDNAKNTVYVQMNSLKPEDTAVYYCAAVGRPPYAGDRGYWGQGTQVTVSS”, the “polyreactivity (PSR sort gate)” value was “high polyreactivity”. In the case of “QVQLVESGGGLVQAGGSLRLSCAASGFIFVPYAMGWDRQAPGNERELVAAITWSGAATYYADSVQGRFTISRDNAKNTVYLQLNSLKPEDTAVYYCAAENWLPQTGGYYWYDSWGQGTQVTVSS”, the “polyreactivity (PSR sort gate)” value is reported as “high polyreactivity”. With “QVQLVESGGGLVQSGGSLRLSCAASGRISYYYAMGWYRQAPGKERELVARISKSGGSTYYADSVKGRFTISRDNAKNTVYLQMNSLKPVVTAVYFCAARWKTGYNYWGEGTQVTVSS” the “polyreactivity (PSR sort gate)” value was “high polyreactivity”. With “QVQLVESGGGLVQAGGSLRLSCAASGSIFAYNAMGWYRQAPGKERELVAAITISGGRTYYADSVKGRFTISRDNAKNTVYLQMNSLKPEDTAVYYCAARYPSGTRKWYGYWGQGTQVTVSS” the “polyreactivity (PSR sort gate)” value was “high polyreactivity”. For “QVQLVESGGGLVQAGGILRLSCAASGGIIAINAMGWYRQAPGKERELVAAISWGDGITYYADSVKGRFTISRDNEKNTVYLQMNSLKPEDTAVYYCAADEDEYRGGDESWGQGTQVTVSS”, the “polyreactivity (PSR sort gate)” value was “low polyreactivity”. For “QVQLVESGGGLVQAGGSLRLSCAASGFIFPRYAKGWYRQAPGKERELVAAISKSGGRTYYADSEKGGFTISRDYAKNTFYLQMNSLKPEDTAVYYCADGRISRFSRYYYWGQGTHVTVSS”, the “polyreactivity (PSR sort gate)” value was “high polyreactivity”. For “QVQLVESGGGLVQAGGSLRLSCAASGFIFEYYAMGWYRQAPGKERELVAAINGGGGNTYYADSVKGRFTISRDNAKNTVYLQMNSLKPEDTAVYYCNAKRRKYRYDYWGQGTEVTVSS”, the “polyreactivity (PSR sort gate)” value was “high polyreactivity”. For “QVQLVESGGGLVQAGGSLRLSCAASGITFYGYAMGWYRQAPGKEREFVATISKSGGITSYADSVKGRFTISRDNAKNTVYLQMNSLKPEDTAVYYCNRGKRYGGYDYWGQGSQVTVSS”, the “polyreactivity (PSR sort gate)” value was “low polyreactivity”. With “QVQLVESGGGLVQAGGSLRLSCAASGLTIGSNVMGWYRQAPGKERELVAAISQSGGRTYYADSVKGRFTISRDNAKNTVYLQMNSLKQEDTAVYYCAKRLRSFYGRPMGDYWGQGTQVTVSS” the “polyreactivity (PSR sort gate)” value was “high polyreactivity”. For “QVQLVESGGGLVQAGGSLRLSCAASGSTFGEYAMGWYRQAPGKERELVAVITWRDDSTYYADSVKGRFTISRDNAKNTVYLQMNSLKPEDTAVYYCNADIYQGNAGYIEVGTFGEYDYWGQGTQVTVSS”, the “polyreactivity (PSR sort gate)” value was “low polyreactivity”. For “QVQLVESGGGLVQAGGSLRLSCAASGFTFWTYDMGWYRQAPGKERELVAAISTSGGSTYYADSVKGRFTISRDNAKNTVYLQMNSLKPEDTAVYYCAAYAIGEHFRARYGYWGQGTQVTVSS”, the “polyreactivity (PSR sort gate)” value was “high polyreactivity”. With “QVQLVESGGGLVQAGGSLRLSCAASGGTFVPYAMGWYRQAPGKERELVAAITIGGSTSYADSVKGRFTISRDNAKNTVYLQMNSLKPEDTAVYYCNARSYPDYIYWSQRYDYDYWGQGTQVTVSS” the “polyreactivity (PSR sort gate)” value was “low polyreactivity”. With “QVQLVESGGGLVQAGGSLRLSCAASGSTFDFYAMGWYRQAPGKERELVAAITYSGGSTYYADSVKGRFTISRDNAKNTVYLQMNSLKPEDTAVYYCAAARVWQYSDFFLYYYWGQGTQVTVSS” the “polyreactivity (PSR sort gate)” value was “low polyreactivity”. With “QVQLVESGGGLVQAGGSLRLSCAASGRTFAWNTMGWYRQAPGKERELLAAISGSGGSTYYADSVKGRFTISRDYAKNTVYLQMNSLKPEDTAVYYCARRVDSYYGHTLYYYWGQGTQVTVSS” the “polyreactivity (PSR sort gate)” value was “high polyreactivity”. In the case of “QVQLVESGGGLVQAGGSLRLSCAASGRTLKYNAMGWYRQAPGKERELVAAISYSGSSTYYADSVKGRFTISRDNAKNTVYLQMNSLKPEDTAVYYCNTARPTAAYDYWGQGTQVTVSS”, the “polyreactivity (PSR sort gate)” value is reported as “low polyreactivity”. With “KVQLVESGGGLVQAGGSLRLSCAASGSIFYYYAMGWYRQAPGKERELVAAISERGAYVLRRPVKGRFTISRDNAKNTVYLQMNSLKPEDTAVYYCAVGFNFQGWRYDYWGQGTQVNVSS” the “polyreactivity (PSR sort gate)” value was “high polyreactivity”. With “QVQLVESGGGLVQAGGSLRLSCAASGGTFVRYAMGGYRPAPGKERELVAAISSRGGSTYYADSVKGRFTISRDNAKNTVFLQMNSLKPEDTAVYYCAARPGYYDFYWGQGTQVTVSS” the “polyreactivity (PSR sort gate)” value was “high polyreactivity”. In the case of “QLQLVESGGGLVQAGGSLRLSCAASGSILTINAMGWYSQAPGKERELVAAITGNGGSTDYADSVKVRFTISRDNAKNTVYLQMNSQKPEDTAVYYCAARVRGTGVYGGYNYWGQGTQVTVSS”, the “polyreactivity (PSR sort gate)” value is reported as “high polyreactivity”. In the case of “QVQLVESGGGLVQAGASLRLSCAASGGIFDLYAMGWYRQAPGKERELVAAITRSGSSTFYADSVKGRFTISRDNAKNTVYLQMNSLKPEDSAVYYCNARYCWYGTYGGDYWGQGTQVTVSS”, the “polyreactivity (PSR sort gate)” value is reported as “low polyreactivity”.

— the nanobody polyreactivity screen of Harvey et al. (2022)
